For the data set, the system named is Escherichia coli TOP10. Kind of data set: shrunken log2 fold change of peptide-encoding DNA abundance (4.5 h post-induction vs induction); higher = less antimicrobial activity (less host growth inhibition). Conditions: time post-induction: 4.5 h; library: site-saturation at positions 5, 18, 19, 20.
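Note: peptides expressed intracellularly from a pBAD plasmid library in pooled LB shake-flask culture, induced with 0.3% L-arabinose, DNA abundance read by NGS, three biological replicates, DESeq2 with apeglm shrinkage.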

Take RRIRYRPPRLPRPRPRPGMQPRP: the “shrunken log2 fold change” value was -0.224.

On to RRIRLRPPRLPRPRPRPRRFPRP, for which the “shrunken log2 fold change” value is 0.142.

With RRIRDRPPRLPRPRPRPHIPPRP, the “shrunken log2 fold change” value turned out to be 2.08.

For the sequence RRIRTRPPRLPRPRPRPYKMPRP, the “shrunken log2 fold change” value is -0.0239.

RRIRRRPPRLPRPRPRPHGLPRP: the “shrunken log2 fold change” value amounted to 0.217.

Take RRIRCRPPRLPRPRPRPITHPRP: the “shrunken log2 fold change” value was -0.158.

Take RRIRVRPPRLPRPRPRPCMDPRP: the “shrunken log2 fold change” value is -0.836.

With RRIRLRPPRLPRPRPRPHSYPRP, the “shrunken log2 fold change” value is -0.0533.

Turning to RRIRHRPPRLPRPRPRPTQTPRP, the “shrunken log2 fold change” value was -0.0128.

As for RRIRVRPPRLPRPRPRPHAVPRP, the “shrunken log2 fold change” value is -0.318.

For the sequence RRIRDRPPRLPRPRPRPRVIPRP, the “shrunken log2 fold change” value was -0.305.

RRIRCRPPRLPRPRPRPYRAPRP: the “shrunken log2 fold change” value was -0.383.

Regarding RRIRMRPPRLPRPRPRPAWFPRP, the “shrunken log2 fold change” value came to 0.634.

RRIRPRPPRLPRPRPRPWQLPRP: the “shrunken log2 fold change” value stood at 0.224.

Regarding RRIRCRPPRLPRPRPRPQLSPRP, the “shrunken log2 fold change” value amounted to 0.122.

On to RRIRMRPPRLPRPRPRPQKPPRP, for which the “shrunken log2 fold change” value is -0.165.

Turning to RRIRWRPPRLPRPRPRPPFPPRP, the “shrunken log2 fold change” value was 0.37.

RRIRWRPPRLPRPRPRPDVNPRP: the “shrunken log2 fold change” value was -0.125.

With RRIRPRPPRLPRPRPRPCAWPRP, the “shrunken log2 fold change” value was 0.0868.

For the sequence RRIRCRPPRLPRPRPRPNIKPRP, the “shrunken log2 fold change” value was -0.647.

On to RRIRQRPPRLPRPRPRPEDCPRP, for which the “shrunken log2 fold change” value was determined as 0.0138.

Regarding RRIRFRPPRLPRPRPRPAVIPRP, the “shrunken log2 fold change” value was -0.0689.

Regarding RRIRWRPPRLPRPRPRPSGMPRP, the “shrunken log2 fold change” value amounted to 0.104.

As to RRIRVRPPRLPRPRPRPTVNPRP, the “shrunken log2 fold change” value was -0.171.

As to RRIRQRPPRLPRPRPRPDAFPRP, the “shrunken log2 fold change” value amounted to 0.141.

Turning to RRIRARPPRLPRPRPRPIPLPRP, the “shrunken log2 fold change” value came out at 0.0456.

RRIRDRPPRLPRPRPRPGSYPRP: the “shrunken log2 fold change” value is -0.0689.

For RRIRHRPPRLPRPRPRPRQFPRP, the “shrunken log2 fold change” value was -0.0158.

As for RRIRSRPPRLPRPRPRPRACPRP, the “shrunken log2 fold change” value came to 0.403.

Regarding RRIRTRPPRLPRPRPRPCSWPRP, the “shrunken log2 fold change” value amounted to 0.0291.

In the case of RRIRWRPPRLPRPRPRPNAYPRP, the “shrunken log2 fold change” value was -0.214.

Consider RRIRWRPPRLPRPRPRPMKRPRP, for which the “shrunken log2 fold change” value stood at 0.0121.

Turning to RRIRGRPPRLPRPRPRPCWRPRP, the “shrunken log2 fold change” value was found to be 0.248.

As to RRIRSRPPRLPRPRPRPQRAPRP, the “shrunken log2 fold change” value stood at 0.123.

For RRIRDRPPRLPRPRPRPHQCPRP, the “shrunken log2 fold change” value was -0.0903.

For the sequence RRIRIRPPRLPRPRPRPKTDPRP, the “shrunken log2 fold change” value is -0.292.

With RRIRSRPPRLPRPRPRPDGTPRP, the “shrunken log2 fold change” value is -0.199.

On to RRIRVRPPRLPRPRPRPVPAPRP, for which the “shrunken log2 fold change” value is 0.391.

Take RRIRQRPPRLPRPRPRPRASPRP: the “shrunken log2 fold change” value came to 0.392.

For RRIRKRPPRLPRPRPRPCGSPRP, the “shrunken log2 fold change” value was -0.0192.

With RRIRTRPPRLPRPRPRPIKLPRP, the “shrunken log2 fold change” value was -0.412.

For RRIRNRPPRLPRPRPRPAIEPRP, the “shrunken log2 fold change” value was determined as 0.00973.

With RRIRYRPPRLPRPRPRPVKEPRP, the “shrunken log2 fold change” value was determined as 0.00241.

As for RRIRMRPPRLPRPRPRPEWNPRP, the “shrunken log2 fold change” value turned out to be 0.406.

Take RRIRQRPPRLPRPRPRPMTDPRP: the “shrunken log2 fold change” value was -0.0989.

On to RRIRMRPPRLPRPRPRPHKIPRP, for which the “shrunken log2 fold change” value was -0.188.

With RRIRQRPPRLPRPRPRPDFMPRP, the “shrunken log2 fold change” value was -0.316.

For RRIRWRPPRLPRPRPRPLWCPRP, the “shrunken log2 fold change” value came to 0.149.

Turning to RRIRRRPPRLPRPRPRPKYHPRP, the “shrunken log2 fold change” value was -0.153.

Consider RRIRARPPRLPRPRPRPGMNPRP, for which the “shrunken log2 fold change” value was -0.0966.

In the case of RRIRLRPPRLPRPRPRPVDCPRP, the “shrunken log2 fold change” value was -0.456.

In the case of RRIRERPPRLPRPRPRPGAEPRP, the “shrunken log2 fold change” value was 0.372.

RRIRPRPPRLPRPRPRPQQIPRP: the “shrunken log2 fold change” value was -0.124.

As for RRIRWRPPRLPRPRPRPGKAPRP, the “shrunken log2 fold change” value worked out at 0.0616.

RRIRWRPPRLPRPRPRPFYPPRP: the “shrunken log2 fold change” value was -0.239.

In the case of RRIRCRPPRLPRPRPRPLPVPRP, the “shrunken log2 fold change” value was -0.105.

Turning to RRIRARPPRLPRPRPRPKKAPRP, the “shrunken log2 fold change” value came to 0.285.

Turning to RRIRARPPRLPRPRPRPIWSPRP, the “shrunken log2 fold change” value is 1.14.

Consider RRIRQRPPRLPRPRPRPKNCPRP, for which the “shrunken log2 fold change” value was -0.0633.

RRIRQRPPRLPRPRPRPYWSPRP: the “shrunken log2 fold change” value was -0.117.

RRIRLRPPRLPRPRPRPKQFPRP: the “shrunken log2 fold change” value amounted to 0.0426.

With RRIRHRPPRLPRPRPRPEIMPRP, the “shrunken log2 fold change” value was -0.023.

For the sequence RRIRYRPPRLPRPRPRPEPRPRP, the “shrunken log2 fold change” value worked out at 0.408.

In the case of RRIRGRPPRLPRPRPRPFPRPRP, the “shrunken log2 fold change” value amounted to 1.01.

On to RRIRPRPPRLPRPRPRPQYEPRP, for which the “shrunken log2 fold change” value was -0.583.

RRIRLRPPRLPRPRPRPCCKPRP: the “shrunken log2 fold change” value was -0.102.

Regarding RRIRHRPPRLPRPRPRPSSQPRP, the “shrunken log2 fold change” value is -0.152.

In the case of RRIRYRPPRLPRPRPRPLHWPRP, the “shrunken log2 fold change” value is -0.211.

Consider RRIRWRPPRLPRPRPRPPQAPRP, for which the “shrunken log2 fold change” value amounted to 0.733.

Turning to RRIRGRPPRLPRPRPRPLESPRP, the “shrunken log2 fold change” value amounted to 1.12.

For RRIRCRPPRLPRPRPRPFKRPRP, the “shrunken log2 fold change” value is -0.219.

With RRIRDRPPRLPRPRPRPSFKPRP, the “shrunken log2 fold change” value was -0.0471.

With RRIRVRPPRLPRPRPRPETEPRP, the “shrunken log2 fold change” value is 0.276.

With RRIRRRPPRLPRPRPRPSVGPRP, the “shrunken log2 fold change” value is 0.171.

In the case of RRIRKRPPRLPRPRPRPDITPRP, the “shrunken log2 fold change” value stood at 2.24.

On to RRIRLRPPRLPRPRPRPSDAPRP, for which the “shrunken log2 fold change” value is 0.0959.

As for RRIRVRPPRLPRPRPRPPEKPRP, the “shrunken log2 fold change” value was 0.0629.

Take RRIRNRPPRLPRPRPRPYEKPRP: the “shrunken log2 fold change” value was -0.0332.

As for RRIRRRPPRLPRPRPRPRKAPRP, the “shrunken log2 fold change” value stood at 0.885.

Regarding RRIRKRPPRLPRPRPRPEVRPRP, the “shrunken log2 fold change” value was 1.86.

Turning to RRIRMRPPRLPRPRPRPPNCPRP, the “shrunken log2 fold change” value stood at 0.0335.

Take RRIRARPPRLPRPRPRPHEMPRP: the “shrunken log2 fold change” value was 0.588.

With RRIRHRPPRLPRPRPRPRDPPRP, the “shrunken log2 fold change” value was -0.153.

On to RRIRMRPPRLPRPRPRPSTQPRP, for which the “shrunken log2 fold change” value is 0.148.

For the sequence RRIRPRPPRLPRPRPRPYKMPRP, the “shrunken log2 fold change” value was -0.605.

On to RRIRWRPPRLPRPRPRPMPVPRP, for which the “shrunken log2 fold change” value worked out at 0.346.

With RRIRVRPPRLPRPRPRPTNDPRP, the “shrunken log2 fold change” value was 0.0333.

Regarding RRIRWRPPRLPRPRPRPVFHPRP, the “shrunken log2 fold change” value turned out to be 0.379.

As to RRIRDRPPRLPRPRPRPGRRPRP, the “shrunken log2 fold change” value was 0.311.

As to RRIRIRPPRLPRPRPRPYEAPRP, the “shrunken log2 fold change” value was -0.18.

For RRIRLRPPRLPRPRPRPFVNPRP, the “shrunken log2 fold change” value was -0.372.

For the sequence RRIRQRPPRLPRPRPRPGIWPRP, the “shrunken log2 fold change” value is 0.0216.

In the case of RRIRHRPPRLPRPRPRPTCCPRP, the “shrunken log2 fold change” value was -0.125.

In the case of RRIRNRPPRLPRPRPRPGAAPRP, the “shrunken log2 fold change” value turned out to be 0.417.

On to RRIRHRPPRLPRPRPRPVMPPRP, for which the “shrunken log2 fold change” value was 0.189.

Consider RRIRSRPPRLPRPRPRPYKDPRP, for which the “shrunken log2 fold change” value is -0.716.

As for RRIRERPPRLPRPRPRPFKHPRP, the “shrunken log2 fold change” value is -0.255.

Consider RRIRVRPPRLPRPRPRPARLPRP, for which the “shrunken log2 fold change” value stood at 0.266.

As to RRIRTRPPRLPRPRPRPKWWPRP, the “shrunken log2 fold change” value stood at 0.683.

Take RRIRRRPPRLPRPRPRPLEIPRP: the “shrunken log2 fold change” value worked out at 0.0856.

On to RRIRARPPRLPRPRPRPQGQPRP, for which the “shrunken log2 fold change” value is -0.2.

As to RRIRERPPRLPRPRPRPNEFPRP, the “shrunken log2 fold change” value was -0.0497.

In the case of RRIRSRPPRLPRPRPRPVIMPRP, the “shrunken log2 fold change” value is -0.36.

For RRIRTRPPRLPRPRPRPWYDPRP, the “shrunken log2 fold change” value is 0.0754.

With RRIRRRPPRLPRPRPRPQGEPRP, the “shrunken log2 fold change” value was 0.373.

Turning to RRIRCRPPRLPRPRPRPRLMPRP, the “shrunken log2 fold change” value was found to be 0.174.

Take RRIRWRPPRLPRPRPRPRPQPRP: the “shrunken log2 fold change” value stood at 0.588.

As for RRIRTRPPRLPRPRPRPNARPRP, the “shrunken log2 fold change” value was -0.0251.

Take RRIRNRPPRLPRPRPRPHTNPRP: the “shrunken log2 fold change” value amounted to 0.0886.

As for RRIRGRPPRLPRPRPRPGSGPRP, the “shrunken log2 fold change” value is 0.808.

Regarding RRIRERPPRLPRPRPRPKFNPRP, the “shrunken log2 fold change” value was -0.558.

On to RRIRGRPPRLPRPRPRPSLCPRP, for which the “shrunken log2 fold change” value was determined as 1.73.

On to RRIRHRPPRLPRPRPRPFGKPRP, for which the “shrunken log2 fold change” value was 0.0294.

As to RRIRHRPPRLPRPRPRPPLRPRP, the “shrunken log2 fold change” value stood at 0.287.

Regarding RRIRLRPPRLPRPRPRPMEMPRP, the “shrunken log2 fold change” value is -0.0251.

For the sequence RRIRSRPPRLPRPRPRPDIMPRP, the “shrunken log2 fold change” value was -0.661.

For the sequence RRIRKRPPRLPRPRPRPNSEPRP, the “shrunken log2 fold change” value was 2.18.

For RRIRYRPPRLPRPRPRPDCLPRP, the “shrunken log2 fold change” value was -0.209.

As to RRIRTRPPRLPRPRPRPKLQPRP, the “shrunken log2 fold change” value is -0.114.

Turning to RRIRLRPPRLPRPRPRPETCPRP, the “shrunken log2 fold change” value was -0.0935.

Consider RRIRSRPPRLPRPRPRPSRSPRP, for which the “shrunken log2 fold change” value is 0.179.

RRIRRRPPRLPRPRPRPTMIPRP: the “shrunken log2 fold change” value was -0.195.

For RRIRERPPRLPRPRPRPNVWPRP, the “shrunken log2 fold change” value was 0.133.

For the sequence RRIRARPPRLPRPRPRPKGHPRP, the “shrunken log2 fold change” value is 0.359.

With RRIRGRPPRLPRPRPRPCILPRP, the “shrunken log2 fold change” value was 0.0804.

For the origin of these results see the supplement of paper PMC9112550, “Optimization of the antimicrobial peptide Bac7 by deep mutational scanning” (BMC Biology, 2022).
